Measurements taken from PMC11984883, “ACAT1‐Mediated ME2 Acetylation Drives Chemoresistance in Ovarian Cancer by Linking Glutaminolysis to Lactate Production” (Advanced Science, 2025).

Key:
ME2 (malic enzyme 2) = biological target: T1, ME2 (malic enzyme 2) (Homo sapiens, UniProt P23368); assay: […]-pyruvate binding to Flag-bead-bound ME2, scintillation counting
T1 construct: for the malate assay purified from overexpressing 293T cells treated with cisplatin

[1] = biological target: T2, ME2-flag recombinant protein (WT) (UniProt P23368 19-584); assay: pull-down; ME2-flag recombinant protein bound to Flag beads, incubated with recombinant ACAT1 or SIRT4 with or without pyruvate (increasing concentrations) for 20 min at room temperature, unbound protein washed out, western blot; conditions: both partners purified
T2 construct: malic enzyme 2 (ME2), wild type; If it was made in mammalian cells, the mitochondrial transit peptide is probably removed (surmise); also called purified ME2-flag protein; ME2-flag WT; not shown: Flag, C-terminal, kept

[2] = biological target: T3, ME2-flag R511A recombinant protein (UniProt P23368 19-584, R511A); assay: as above; conditions: both partners purified
T3 construct: Same construct as m7, with the mutation; also called ME2 R511A; source: recombinant, purified; not shown: Flag, C-terminal, kept
T3 sequence (P23368 19-584 R511A): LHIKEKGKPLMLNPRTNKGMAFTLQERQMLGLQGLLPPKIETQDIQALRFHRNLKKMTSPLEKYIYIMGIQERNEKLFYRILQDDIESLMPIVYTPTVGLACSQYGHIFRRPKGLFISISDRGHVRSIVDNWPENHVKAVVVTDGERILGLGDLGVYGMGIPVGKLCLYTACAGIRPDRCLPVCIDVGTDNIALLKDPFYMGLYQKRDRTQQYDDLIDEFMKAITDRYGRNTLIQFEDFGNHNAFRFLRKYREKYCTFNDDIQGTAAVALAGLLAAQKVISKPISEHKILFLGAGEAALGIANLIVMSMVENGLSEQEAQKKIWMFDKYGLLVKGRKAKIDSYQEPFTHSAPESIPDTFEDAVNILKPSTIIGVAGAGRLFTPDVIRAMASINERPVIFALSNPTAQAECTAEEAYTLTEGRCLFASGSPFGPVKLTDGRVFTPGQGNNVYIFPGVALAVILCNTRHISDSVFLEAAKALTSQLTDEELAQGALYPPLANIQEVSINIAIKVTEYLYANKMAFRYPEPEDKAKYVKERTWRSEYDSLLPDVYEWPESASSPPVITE

T2 sequence (P23368 19-584): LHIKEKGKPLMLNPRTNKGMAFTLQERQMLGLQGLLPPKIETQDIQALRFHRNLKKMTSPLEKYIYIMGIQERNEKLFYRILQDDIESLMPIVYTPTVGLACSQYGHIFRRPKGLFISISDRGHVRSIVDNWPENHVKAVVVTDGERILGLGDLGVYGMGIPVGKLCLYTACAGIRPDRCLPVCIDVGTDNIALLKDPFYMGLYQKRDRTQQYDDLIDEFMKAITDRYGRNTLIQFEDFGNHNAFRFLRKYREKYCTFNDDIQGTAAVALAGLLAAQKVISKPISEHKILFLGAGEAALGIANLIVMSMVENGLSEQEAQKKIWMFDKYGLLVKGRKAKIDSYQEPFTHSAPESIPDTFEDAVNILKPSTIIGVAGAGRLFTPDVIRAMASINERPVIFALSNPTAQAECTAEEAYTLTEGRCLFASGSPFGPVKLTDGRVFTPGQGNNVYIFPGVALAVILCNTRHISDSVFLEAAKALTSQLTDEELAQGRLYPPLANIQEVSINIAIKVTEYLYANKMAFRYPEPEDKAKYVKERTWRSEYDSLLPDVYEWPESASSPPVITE
T1 sequence (P23368 19-584): as above

Molecule CC(=O)C(=O)O [pyruvate] has a Kd (ME2 (malic enzyme 2)) of ~6.17 µM.

B1: recombinant SIRT4 (enzyme, UniProt Q9Y6E7 29-314, looked up)
chain: IGLFVPASPPLDPEKVKELQRFITLSKRLLVMTGAGISTESGIPDYRSEKVGLYARTDRRPIQHGDFVRSAPIRQRYWARNFVGWPQFSSHQPNPAHWALSTWEKLGKLYWLVTQNVDALHTKAGSRRLTELHGCMDRVLCLDCGEQTPRGVLQERFQVLNPTWSAEAHGLAPDGDVFLSEEQVRSFQVPTCVQCGGHLKPDVVFFGDTVNPDKVDFVHKRVKEADSLLVVGSSLQVYSGYRFILTAWEKKLPIAILNIGPTRSDDLACLKLNSRCGELLPLIDPC
notes: SIRT4, recombinant protein; also called purified, recombinant SIRT4; source: recombinant, purified
B1: binds [1]; binds [2].

B2: recombinant ACAT1 (enzyme, UniProt P24752 34-427, looked up)
chain: VSKPTLKEVVIVSATRTPIGSFLGSLSLLPATKLGSIAIQGAIEKAGIPKEEVKEAYMGNVLQGGEGQAPTRQAVLGAGLPISTPCTTINKVCASGMKAIMMASQSLMCGHQDVMVAGGMESMSNVPYVMNRGSTPYGGVKLEDLIVKDGLTDVYNKIHMGSCAENTAKKLNIARNEQDAYAINSYTRSKAAWEAGKFGNEVIPVTVTVKGQPDVVVKEDEEYKRVDFSKVPKLKTVFQKENGTVTAANASTLNDGAAALVLMTADAAKRLNVTPLARIVAFADAAVEPIDFPIAPVYAASMVLKDVGLKKEDIAMWEVNEAFSLVVLANIKMLEIDPQKVNINGGAVSLGHPIGMSGARIVGHLTHALKQGEYGLASICNGGGGASAMLIQKL
notes: acetyl-CoA acetyltransferase 1 (ACAT1), recombinant protein; also called purified, recombinant ACAT1; source: recombinant, purified
B2: binds [1]; binds [2].
